Results as given in patent publication EP1426444A2 (Technion Research & Development Co., Ltd., dated 2004).

B1: VEGF121 (ligand, human, UniProt P15692-9 27-147, looked up)
chain: APMAEGGGQNHHEVVKFMDVYQRSYCHPIETLVDIFQEYPDEIEYIFKPSCVPLMRCGGCCNDEGLECVPTEESNITMQIMRIKPHQGQHIGEMSFLQHNKCECRPKKDRARQEKCDKPRR
notes: mature
B2: VEGF145 (recombinant, produced in Sf9 insect cells by baculovirus) (ligand)
chain: APMAEGGGQNHHEVVKFMDVYQRSYCHPIETLVDIFQEYPDEIEYIFKPSCVPLMRCGGCCNDEGLECVPTEESNITMQIMRIKPHQGQHIGEMSFLQHNKCECRPKKDRARQEKKSVRGKGKGQKRKRKKSRYKSWSVCDKPRR
notes: partially purified on heparin-sepharose; also called VEGF exons 1-5, 6a, 8

Biological target: T1, KDR/flk-1 VEGF receptor of HUVEC cells (human, UniProt P35968 20-1356)
T1 construct: whole, on cells; Endogenous receptor on confluent HUVEC cells; also called the larger VEGF receptor of HUVEC cells
Assay: overview table, row 'Binding to Flk-1 and Flt-1 receptors'

T1 sequence (P35968 20-1356): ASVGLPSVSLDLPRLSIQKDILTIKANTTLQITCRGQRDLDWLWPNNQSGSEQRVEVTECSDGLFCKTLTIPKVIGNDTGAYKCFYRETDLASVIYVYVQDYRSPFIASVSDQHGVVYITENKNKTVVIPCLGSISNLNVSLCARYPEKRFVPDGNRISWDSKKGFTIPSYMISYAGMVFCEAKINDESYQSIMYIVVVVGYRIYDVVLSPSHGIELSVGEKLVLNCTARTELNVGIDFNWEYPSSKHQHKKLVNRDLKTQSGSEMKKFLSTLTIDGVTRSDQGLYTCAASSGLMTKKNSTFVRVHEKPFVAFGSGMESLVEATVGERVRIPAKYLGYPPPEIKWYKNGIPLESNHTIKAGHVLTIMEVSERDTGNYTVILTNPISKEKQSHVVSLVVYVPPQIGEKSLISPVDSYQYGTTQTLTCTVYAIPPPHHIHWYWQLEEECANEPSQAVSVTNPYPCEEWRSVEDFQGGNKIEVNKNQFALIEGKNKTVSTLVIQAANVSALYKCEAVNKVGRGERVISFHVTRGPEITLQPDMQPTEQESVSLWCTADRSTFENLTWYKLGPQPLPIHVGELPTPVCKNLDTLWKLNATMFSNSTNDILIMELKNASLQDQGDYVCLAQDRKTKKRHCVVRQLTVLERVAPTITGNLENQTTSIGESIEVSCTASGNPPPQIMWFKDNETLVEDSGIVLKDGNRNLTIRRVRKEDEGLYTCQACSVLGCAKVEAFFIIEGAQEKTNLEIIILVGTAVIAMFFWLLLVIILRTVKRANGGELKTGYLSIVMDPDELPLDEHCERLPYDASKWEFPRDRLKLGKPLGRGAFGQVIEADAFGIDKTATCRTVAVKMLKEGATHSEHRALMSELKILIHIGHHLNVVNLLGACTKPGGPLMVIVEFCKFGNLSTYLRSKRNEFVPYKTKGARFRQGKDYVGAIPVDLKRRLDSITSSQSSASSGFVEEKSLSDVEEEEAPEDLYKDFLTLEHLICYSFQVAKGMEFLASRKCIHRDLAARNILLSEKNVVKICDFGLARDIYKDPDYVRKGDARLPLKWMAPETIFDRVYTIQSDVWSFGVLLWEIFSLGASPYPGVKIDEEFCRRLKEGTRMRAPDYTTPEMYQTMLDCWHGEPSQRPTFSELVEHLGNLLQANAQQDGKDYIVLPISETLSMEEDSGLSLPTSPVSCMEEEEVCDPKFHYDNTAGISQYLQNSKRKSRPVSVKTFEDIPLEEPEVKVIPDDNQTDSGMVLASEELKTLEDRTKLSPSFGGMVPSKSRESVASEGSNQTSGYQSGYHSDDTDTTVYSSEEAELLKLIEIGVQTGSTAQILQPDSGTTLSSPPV

Binder | binding result
B1 | binds
B2 | binds
